Data as given in the supplement of paper PMC7125110.
± gives the standard error. Variants at the floor of the assay were thinned out.

B1: glmS ribozyme (parent)
chain: AUAAAAGCGCCAGAACUACAGAAAUGUAGUUGACGAGGAGGAGGUUUAUCGAAUUUUCGGCGGAUGCCUCCAAA

How the values were obtained:
Conditions in all cases: with glucosamine-6-phosphate
[1] = variants of: B1; assay: self-cleavage kobs at 160 uM GlcN6P; higher = faster cleavage; RNA array
Procedure, shortened: (§1)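 Sequenced MiSeq chips were the platform: E. coli RNA polymerase transcribed barcoded ribozyme variants on them in situ, and a hybridised Cy3 probe tracked these at 37 °C. After glucosamine-6-phosphate (40 μM to 10 mM) in HEPES/KCl/Mg(OAc)2 buffer was flowed in, tiles were imaged over ~14 h. Signals normalised to baseline and to non-cleaving reference variants were reduced to per-tile medians and fit to one- or two-exponential decays to obtain kobs. kcat and KM were derived through weighted Michaelis–Menten fits across concentrations.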

[2] = variants of: B1; assay: self-cleavage kobs at 640 uM GlcN6P; higher = faster cleavage; RNA array
Procedure, shortened: as §1

[3] = variants of: B1; assay: self-cleavage kobs at 2500 uM GlcN6P; higher = faster cleavage; RNA array
Procedure, shortened: as §1

[4] = variants of: B1; assay: self-cleavage kobs at 10000 uM GlcN6P; higher = faster cleavage; RNA array
Procedure, shortened: as §1

Variant: C11A C50G C61U
- self-cleavage kobs at 160 uM GlcN6P [1]: 0.000476 ± 0.00011 s⁻¹
- self-cleavage kobs at 640 uM GlcN6P [2]: 0.000601 ± 0.00018 s⁻¹

Variant: G13U G51C U65G
- self-cleavage kobs at 160 uM GlcN6P [1]: < 1e-05 s⁻¹
- self-cleavage kobs at 640 uM GlcN6P [2]: < 1e-05 s⁻¹

Variant: C8A G51U
- self-cleavage kobs at 160 uM GlcN6P [1]: < 1e-05 s⁻¹
- self-cleavage kobs at 640 uM GlcN6P [2]: < 1e-05 s⁻¹

Variant: C10U C16U G38C
- self-cleavage kobs at 160 uM GlcN6P [1]: < 1e-05 s⁻¹
- self-cleavage kobs at 640 uM GlcN6P [2]: < 1e-05 s⁻¹
- self-cleavage kobs at 2500 uM GlcN6P [3]: < 1e-05 s⁻¹

Variant: G38C A48G G60U
- self-cleavage kobs at 160 uM GlcN6P [1]: < 1e-05 s⁻¹
- self-cleavage kobs at 640 uM GlcN6P [2]: < 1e-05 s⁻¹
- self-cleavage kobs at 2500 uM GlcN6P [3]: < 1e-05 s⁻¹

Variant: G9A G37A A42U
- self-cleavage kobs at 160 uM GlcN6P [1]: < 1e-05 s⁻¹
- self-cleavage kobs at 640 uM GlcN6P [2]: < 1e-05 s⁻¹

Variant: U17C C50G C71U
- self-cleavage kobs at 160 uM GlcN6P [1]: 6.74e-05 ± 2.2e-05 s⁻¹
- self-cleavage kobs at 640 uM GlcN6P [2]: 0.000319 ± 9.7e-05 s⁻¹
- self-cleavage kobs at 2500 uM GlcN6P [3]: 0.000253 ± 4.6e-05 s⁻¹

Variant: A12G G44C
- self-cleavage kobs at 160 uM GlcN6P [1]: < 1e-05 s⁻¹
- self-cleavage kobs at 640 uM GlcN6P [2]: < 1e-05 s⁻¹
- self-cleavage kobs at 2500 uM GlcN6P [3]: < 1e-05 s⁻¹

Variant: G43U G66U C67U
- self-cleavage kobs at 160 uM GlcN6P [1]: < 1e-05 s⁻¹

Variant: G13C G44C C61A
- self-cleavage kobs at 160 uM GlcN6P [1]: < 1e-05 s⁻¹

Variant: A12C A15U U55G C67U
- self-cleavage kobs at 160 uM GlcN6P [1]: 4.96e-05 ± 2.1e-05 s⁻¹
- self-cleavage kobs at 640 uM GlcN6P [2]: 0.0001 ± 2.8e-05 s⁻¹
- self-cleavage kobs at 2500 uM GlcN6P [3]: 0.000447 ± 0.00013 s⁻¹

Variant: A6U A14C
- self-cleavage kobs at 160 uM GlcN6P [1]: < 1e-05 s⁻¹
- self-cleavage kobs at 10000 uM GlcN6P [4]: 4.13e-05 ± 7.6e-06 s⁻¹

Variant: A6U C10A U30G A36G A42C U49C U65A
- self-cleavage kobs at 160 uM GlcN6P [1]: < 1e-05 s⁻¹
- self-cleavage kobs at 640 uM GlcN6P [2]: < 1e-05 s⁻¹
- self-cleavage kobs at 2500 uM GlcN6P [3]: < 1e-05 s⁻¹

Variant: G29A U31G C50U C68A
- self-cleavage kobs at 160 uM GlcN6P [1]: 5.27e-05 ± 2.2e-05 s⁻¹
- self-cleavage kobs at 640 uM GlcN6P [2]: 7.43e-05 ± 2.9e-05 s⁻¹
- self-cleavage kobs at 2500 uM GlcN6P [3]: 8.2e-05 ± 3.2e-05 s⁻¹

Variant: G37C U46A C68A
- self-cleavage kobs at 160 uM GlcN6P [1]: < 1e-05 s⁻¹

Variant: A52G C67U C71G
- self-cleavage kobs at 160 uM GlcN6P [1]: 4.58e-05 ± 2.3e-05 s⁻¹
- self-cleavage kobs at 640 uM GlcN6P [2]: 7.65e-05 ± 1.9e-05 s⁻¹
- self-cleavage kobs at 2500 uM GlcN6P [3]: 0.000162 ± 5.9e-05 s⁻¹

Variant: G7U A14U U55C C70U
- self-cleavage kobs at 160 uM GlcN6P [1]: < 1e-05 s⁻¹

Variant: A14C G37A G43A C58U C68G
- self-cleavage kobs at 160 uM GlcN6P [1]: < 1e-05 s⁻¹

Variant: G38A G59A
- self-cleavage kobs at 160 uM GlcN6P [1]: < 1e-05 s⁻¹
- self-cleavage kobs at 10000 uM GlcN6P [4]: < 1e-05 s⁻¹

Variant: G38U G40C G41C
- self-cleavage kobs at 160 uM GlcN6P [1]: < 1e-05 s⁻¹
- self-cleavage kobs at 640 uM GlcN6P [2]: < 1e-05 s⁻¹
- self-cleavage kobs at 2500 uM GlcN6P [3]: < 1e-05 s⁻¹

Variant: U30A G51A
- self-cleavage kobs at 160 uM GlcN6P [1]: < 1e-05 s⁻¹

Variant: A42U A52G C68G
- self-cleavage kobs at 160 uM GlcN6P [1]: < 1e-05 s⁻¹
- self-cleavage kobs at 2500 uM GlcN6P [3]: < 1e-05 s⁻¹

Variant: U30C U55A
- self-cleavage kobs at 160 uM GlcN6P [1]: 3.75e-05 ± 1.3e-05 s⁻¹
- self-cleavage kobs at 640 uM GlcN6P [2]: 9.3e-05 ± 1.6e-05 s⁻¹

Variant: A39C G43C
- self-cleavage kobs at 160 uM GlcN6P [1]: < 1e-05 s⁻¹
- self-cleavage kobs at 640 uM GlcN6P [2]: < 1e-05 s⁻¹
- self-cleavage kobs at 10000 uM GlcN6P [4]: < 1e-05 s⁻¹

Variant: U30C U54A C68A
- self-cleavage kobs at 160 uM GlcN6P [1]: 7.12e-05 ± 2.1e-05 s⁻¹
- self-cleavage kobs at 2500 uM GlcN6P [3]: 5.33e-05 ± 2.5e-05 s⁻¹

Variant: G29A G32C A33U G60C G66U
- self-cleavage kobs at 160 uM GlcN6P [1]: < 1e-05 s⁻¹
- self-cleavage kobs at 10000 uM GlcN6P [4]: < 1e-05 s⁻¹

Variant: U30A C50A
- self-cleavage kobs at 160 uM GlcN6P [1]: < 1e-05 s⁻¹

Variant: C16U G38U U54C G66U C71A
- self-cleavage kobs at 160 uM GlcN6P [1]: < 1e-05 s⁻¹
- self-cleavage kobs at 640 uM GlcN6P [2]: < 1e-05 s⁻¹

Variant: A33G G37U C50G
- self-cleavage kobs at 160 uM GlcN6P [1]: 6.35e-05 ± 3.1e-05 s⁻¹
- self-cleavage kobs at 2500 uM GlcN6P [3]: 0.000141 ± 4.1e-05 s⁻¹

Variant: G35A G40A U46C G60U
- self-cleavage kobs at 160 uM GlcN6P [1]: < 1e-05 s⁻¹
- self-cleavage kobs at 2500 uM GlcN6P [3]: < 1e-05 s⁻¹

Variant: G37C G60U C70U
- self-cleavage kobs at 160 uM GlcN6P [1]: < 1e-05 s⁻¹

Variant: G13C U46C
- self-cleavage kobs at 160 uM GlcN6P [1]: < 1e-05 s⁻¹
- self-cleavage kobs at 640 uM GlcN6P [2]: < 1e-05 s⁻¹

Variant: G7U U45A
- self-cleavage kobs at 160 uM GlcN6P [1]: < 1e-05 s⁻¹
- self-cleavage kobs at 2500 uM GlcN6P [3]: < 1e-05 s⁻¹

Variant: A12U C16A G41C
- self-cleavage kobs at 160 uM GlcN6P [1]: < 1e-05 s⁻¹

Variant: A12C G59U
- self-cleavage kobs at 160 uM GlcN6P [1]: < 1e-05 s⁻¹
- self-cleavage kobs at 2500 uM GlcN6P [3]: < 1e-05 s⁻¹
- self-cleavage kobs at 10000 uM GlcN6P [4]: < 1e-05 s⁻¹

Variant: G37C U47A
- self-cleavage kobs at 160 uM GlcN6P [1]: < 1e-05 s⁻¹
- self-cleavage kobs at 10000 uM GlcN6P [4]: 4.38e-05 ± 1.1e-05 s⁻¹

Variant: U30C A42U U49A
- self-cleavage kobs at 160 uM GlcN6P [1]: < 1e-05 s⁻¹
- self-cleavage kobs at 640 uM GlcN6P [2]: < 1e-05 s⁻¹
- self-cleavage kobs at 2500 uM GlcN6P [3]: < 1e-05 s⁻¹

Variant: A15G G21C A39G G40C A48C C58U
- self-cleavage kobs at 160 uM GlcN6P [1]: < 1e-05 s⁻¹

Variant: A6G G38C U49A
- self-cleavage kobs at 160 uM GlcN6P [1]: < 1e-05 s⁻¹
- self-cleavage kobs at 640 uM GlcN6P [2]: < 1e-05 s⁻¹

Variant: G7A C58A
- self-cleavage kobs at 160 uM GlcN6P [1]: < 1e-05 s⁻¹
- self-cleavage kobs at 640 uM GlcN6P [2]: < 1e-05 s⁻¹
- self-cleavage kobs at 2500 uM GlcN6P [3]: < 1e-05 s⁻¹

Variant: G32C G51A C61G
- self-cleavage kobs at 160 uM GlcN6P [1]: < 1e-05 s⁻¹

Variant: G44U C58U
- self-cleavage kobs at 160 uM GlcN6P [1]: < 1e-05 s⁻¹
- self-cleavage kobs at 640 uM GlcN6P [2]: < 1e-05 s⁻¹
- self-cleavage kobs at 2500 uM GlcN6P [3]: < 1e-05 s⁻¹
- self-cleavage kobs at 10000 uM GlcN6P [4]: < 1e-05 s⁻¹

Variant: U57G C58G A64G
- self-cleavage kobs at 160 uM GlcN6P [1]: 6.2e-05 ± 2.9e-05 s⁻¹
- self-cleavage kobs at 640 uM GlcN6P [2]: 8.58e-05 ± 3.5e-05 s⁻¹
- self-cleavage kobs at 2500 uM GlcN6P [3]: 4.48e-05 ± 1.9e-05 s⁻¹

Variant: A6U A42C A53C U65G
- self-cleavage kobs at 160 uM GlcN6P [1]: < 1e-05 s⁻¹
- self-cleavage kobs at 640 uM GlcN6P [2]: < 1e-05 s⁻¹
- self-cleavage kobs at 2500 uM GlcN6P [3]: < 1e-05 s⁻¹

Variant: A6U A12C A36C G38C C71U
- self-cleavage kobs at 160 uM GlcN6P [1]: < 1e-05 s⁻¹
- self-cleavage kobs at 640 uM GlcN6P [2]: < 1e-05 s⁻¹
- self-cleavage kobs at 2500 uM GlcN6P [3]: < 1e-05 s⁻¹

Variant: G7A G59U C70A
- self-cleavage kobs at 160 uM GlcN6P [1]: < 1e-05 s⁻¹
- self-cleavage kobs at 2500 uM GlcN6P [3]: < 1e-05 s⁻¹

Variant: C10G C11U G13C A36C G43C
- self-cleavage kobs at 160 uM GlcN6P [1]: < 1e-05 s⁻¹
- self-cleavage kobs at 640 uM GlcN6P [2]: < 1e-05 s⁻¹
- self-cleavage kobs at 2500 uM GlcN6P [3]: < 1e-05 s⁻¹

Variant: A33U G44C A52U
- self-cleavage kobs at 160 uM GlcN6P [1]: < 1e-05 s⁻¹
- self-cleavage kobs at 2500 uM GlcN6P [3]: < 1e-05 s⁻¹

Variant: C11U A15G C68U
- self-cleavage kobs at 160 uM GlcN6P [1]: 4.79e-05 ± 2.4e-05 s⁻¹
- self-cleavage kobs at 640 uM GlcN6P [2]: 9.88e-05 ± 2.1e-05 s⁻¹
- self-cleavage kobs at 2500 uM GlcN6P [3]: 0.000318 ± 8.7e-05 s⁻¹

Variant: A6U G66A C67G
- self-cleavage kobs at 160 uM GlcN6P [1]: < 1e-05 s⁻¹

Variant: G41A C50A
- self-cleavage kobs at 160 uM GlcN6P [1]: < 1e-05 s⁻¹
- self-cleavage kobs at 640 uM GlcN6P [2]: < 1e-05 s⁻¹
- self-cleavage kobs at 2500 uM GlcN6P [3]: < 1e-05 s⁻¹
- self-cleavage kobs at 10000 uM GlcN6P [4]: < 1e-05 s⁻¹

Variant: A39C G43C C67U
- self-cleavage kobs at 160 uM GlcN6P [1]: < 1e-05 s⁻¹
- self-cleavage kobs at 2500 uM GlcN6P [3]: < 1e-05 s⁻¹

Variant: C16U A36U U55C U56C C58G
- self-cleavage kobs at 160 uM GlcN6P [1]: < 1e-05 s⁻¹
- self-cleavage kobs at 2500 uM GlcN6P [3]: < 1e-05 s⁻¹

Variant: C8U G35A G43U
- self-cleavage kobs at 160 uM GlcN6P [1]: < 1e-05 s⁻¹
- self-cleavage kobs at 640 uM GlcN6P [2]: < 1e-05 s⁻¹
- self-cleavage kobs at 2500 uM GlcN6P [3]: < 1e-05 s⁻¹

Variant: A12C U49A C50A
- self-cleavage kobs at 160 uM GlcN6P [1]: < 1e-05 s⁻¹
- self-cleavage kobs at 2500 uM GlcN6P [3]: < 1e-05 s⁻¹
